Laboratory results as given in publication PMC9691602.

Key:
[1] = molecular target: AcrIF24 (P. aeruginosa prophage); experiment: SEC-SAXS
[2] = molecular target: AcrIF24 (P. aeruginosa prophage); experiment: cryo-EM structure

AcrIF24 (natural protein) was tested, and the stoichiometry N [1] was 2 and the stoichiometry N [2] was 2.
